Data taken from the supplement of paper PMC7125110.
± gives the standard error. Fewer inactive variants are shown than the library holds.

B1: glmS ribozyme (parent)
chain: AUAAAAGCGCCAGAACUACAGAAAUGUAGUUGACGAGGAGGAGGUUUAUCGAAUUUUCGGCGGAUGCCUCCAAA

Variants of: B1
Assay: self-cleavage kobs at 10000 uM GlcN6P; higher = faster cleavage; RNA array
Settings: with glucosamine-6-phosphate
Summary of the method: (§1)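 Barcoded glmS ribozyme variants on sequenced MiSeq chips were transcribed in situ by E. coli RNA polymerase and tracked through a hybridised Cy3 probe at 37 °C. Glucosamine-6-phosphate (40 μM to 10 mM) in HEPES/KCl/Mg(OAc)2 buffer was flowed in, and tiles were imaged over ~14 h. Signals were normalised to baseline and to non-cleaving reference variants; per-tile medians were fit to one- or two-exponential decays to give kobs. kcat and KM came from weighted Michaelis–Menten fits across concentrations.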

| Variant | self-cleavage kobs at 10000 uM GlcN6P [s⁻¹] |
| --- | --- |
| A6U A12U A53G C67G | 8.82e-05 ± 1.8e-05 |
| A6C U47G U49C C67U | < 1e-05 |
| A6G G7A C16G U47A A53C C58A | < 1e-05 |
| U45G U57A | 9.86e-05 ± 1.3e-05 |
| A6C U30G G35U | < 1e-05 |
| A6U G7U C8U G32A G51U | < 1e-05 |
| A6G A12G G40U U47C | < 1e-05 |
| G37A G60U | < 1e-05 |
| A6C A48U U54A C67U | < 1e-05 |
| A6U C11A A39G | < 1e-05 |
| U45C U46A | 5.25e-05 ± 1.3e-05 |
| A6C C50G A64U | 3.95e-05 ± 2e-05 |
| G35C G37A U49A A52G A53U U56G C61G | < 1e-05 |
| U46C A52C G60U C61U | < 1e-05 |
| A6C G32C G41C C58U U65A | < 1e-05 |
| A5U C8G G9U U30C | < 1e-05 |
| G43A U47A | 4.61e-05 ± 1.8e-05 |
| A42G U45C C70U | 0.00197 ± 0.00052 |
| A39U U65C C67G | 0.00025 ± 6e-05 |
| A36C G41C A42U U46C | < 1e-05 |
| A6G G29A G60C G63C | < 1e-05 |
| G41U A52U U55A C70U | 9.97e-05 ± 2.6e-05 |
| G51C G66A | < 1e-05 |
| A5U A39C U65G C68U | 4.87e-05 ± 1.6e-05 |
| A39G U57A | 0.000335 ± 6.1e-05 |

Variants of: B1
Assay: self-cleavage kobs at 2500 uM GlcN6P; higher = faster cleavage; RNA array
Settings: with glucosamine-6-phosphate
Summary of the method: as §1

| Variant | self-cleavage kobs at 2500 uM GlcN6P [s⁻¹] |
| --- | --- |
| U47G G62A C70G | 0.000139 ± 3.4e-05 |
| U56G G66C C71U | 0.000269 ± 5.5e-05 |
| G43C U56A G62A | < 1e-05 |
| C34U G59A C71U | < 1e-05 |
| A52G A53U G66C C67G | < 1e-05 |
| G63C G66U C71A | < 1e-05 |
| A42C G51A A64U C68G | < 1e-05 |
| A52U U55C A64G | 4.16e-05 ± 1.5e-05 |
| G40A A72C | 0.00214 ± 0.00067 |
| U45G U57A | 5.34e-05 ± 1.2e-05 |
| C50U C61U U69A | 0.000118 ± 3.5e-05 |
| A53U U54C U57C C61G | < 1e-05 |
| U45C C58U G59C | < 1e-05 |
| C34U A39U G41C U69G | < 1e-05 |
| G44C U49A G60A G66U | < 1e-05 |
| A52G C61A C67U | 0.000197 ± 7.1e-05 |
| U55A U56A G66C | 0.000134 ± 3.4e-05 |
| A33U G35U G51C A64U | < 1e-05 |
| G41C U45A U56G C67G C70G | 0.00118 ± 0.00023 |
| C34U G40C U56A G63A | < 1e-05 |
| A33U C34U A39C | < 1e-05 |
| G35U A64G C71A | < 1e-05 |
| G43A G59C C68G | < 1e-05 |
| C34U G38U C50G | 0.000215 ± 5.7e-05 |
| U46G A48G U49G G59A | < 1e-05 |
| U46C U47A U69A | 0.000198 ± 6.5e-05 |

| Variant | self-cleavage kobs at 2500 uM GlcN6P [s⁻¹] |
| --- | --- |
| G43A A53G G60U C70U | < 1e-05 |
| G37A G60U | < 1e-05 |
| G35A G40A G66U | < 1e-05 |
| C34U U46G G66U | < 1e-05 |
| A42G C61A C70A | < 1e-05 |
| G44U U57A C71A | < 1e-05 |
| U46A A52G G63U C67G | < 1e-05 |
| G40A G59C G63A C68A | < 1e-05 |
| G38U U45C U57A | < 1e-05 |
| G35A C50A U57G | < 1e-05 |
| U54A A64G C70A | 0.000536 ± 0.00018 |
| C34U U47A G59U A64C C70U | < 1e-05 |
| C34G A42C A48G | < 1e-05 |
| A48U G60C G63C C71U | < 1e-05 |
| A42G C61A U65C | < 1e-05 |
| A42G A52C A53G U54G | < 1e-05 |
| U57C C58A C67G | 0.000113 ± 5.6e-05 |
| G35C C50A A52U | < 1e-05 |
| A52U A53C C67G | < 1e-05 |
| G40A U45C A53C | 3.19e-05 ± 1.5e-05 |
| U45C U46A | 4.42e-05 ± 1.9e-05 |
| G40A G41C A42C U49C | < 1e-05 |
| C34G A39G G60U | < 1e-05 |
| G35C G37A U49A A52G A53U U56G C61G | < 1e-05 |
| G44C C58G G63A C67G | < 1e-05 |
| U46C A52C G60U C61U | < 1e-05 |

| Variant | self-cleavage kobs at 2500 uM GlcN6P [s⁻¹] |
| --- | --- |
| U46C G60U G62U G63C | < 1e-05 |
| G38C A48U U57C C67U | < 1e-05 |
| G60U C67A U69A | < 1e-05 |
| A42G A48U U54G | 0.000367 ± 0.0001 |
| A42C U45C A48U C61A | < 1e-05 |
| G37U G66U C68G C71G | 4.28e-05 ± 2e-05 |
| A52C U57C G66U | < 1e-05 |
| G38C A39C U45A | < 1e-05 |
| G41U G44U C67U U69G | < 1e-05 |
| G38C U57G G59A A64G | < 1e-05 |
| C50A U55A C70U | 5.24e-05 ± 2.1e-05 |
| G40A U46G C67U | 0.000431 ± 0.0002 |
| G38U C67G C68U | 0.000248 ± 8.4e-05 |
| C50A A53G C58G C68A | 0.000108 ± 3.9e-05 |
| G37U G44U U54A | < 1e-05 |
| G37C G38U A42C U45C U46G | < 1e-05 |
| G43A U47A | 1.85e-05 ± 8.2e-06 |
| C50G U55C | 3.57e-05 ± 1.6e-05 |
| G35A C61U | < 1e-05 |
| U54G C67G C70U C71U | 0.000105 ± 1.9e-05 |
| G44C A48G A53C G59U | < 1e-05 |
| G40A U56A C70G | 0.000135 ± 3e-05 |
| A52U A53U G62A U65G C71G | < 1e-05 |
| A42G U45C C70U | 0.00265 ± 0.00085 |
| U57A C67A C71A | 0.000181 ± 4.1e-05 |
| G43C C58G | < 1e-05 |

| Variant | self-cleavage kobs at 2500 uM GlcN6P [s⁻¹] |
| --- | --- |
| C34A G37U U46G U65G | < 1e-05 |
| U47G G62U G63U U65G | < 1e-05 |
| G38A A52G U57A C68A | 7.01e-05 ± 1.7e-05 |
| G41U U54G U56G G60A C70A | 7.76e-05 ± 2.1e-05 |
| G41C U47C C61G C67U | < 1e-05 |
| G43A G44C U54G | < 1e-05 |
| A39U A48G U57A G60U C70G | < 1e-05 |
| A53C C61A G62U | < 1e-05 |
| A33U U46G A48G A64C C70U | < 1e-05 |
| G37U G44U C58A C71A | < 1e-05 |
| A39U U65C C67G | 0.000168 ± 5.5e-05 |
| C50U G60A G63A | < 1e-05 |
| G38C C58U G66A | < 1e-05 |
| C50A C67A C70U | 0.000109 ± 3.7e-05 |
| A36C G37A G51C C61U | < 1e-05 |
| A36C G41C A42U U46C | < 1e-05 |
| A42C U56G U65C C71U | < 1e-05 |
| G37U A42C U55G | < 1e-05 |
| A36G G40C G59U | < 1e-05 |
| U49G A53G U69G | 4.58e-05 ± 1.6e-05 |
| G37U A39G C68G | < 1e-05 |
| A36G U45G C67A | < 1e-05 |
| G37C G60C C67A | < 1e-05 |
| G38A G43U A48G C58G | < 1e-05 |
| U47A A48U U55A G60A | < 1e-05 |
| G37U A42U U54G U57A C67A | < 1e-05 |

| Variant | self-cleavage kobs at 2500 uM GlcN6P [s⁻¹] |
| --- | --- |
| A39G G43U U54C | 6.53e-05 ± 2.4e-05 |
| C34G A36U G40A A64C C71G | < 1e-05 |
| A42U C50U G51U U54C | < 1e-05 |
| G43U G63U C68G | < 1e-05 |
| U46G A48U G59U U69C | < 1e-05 |
| A36U G59C G63U | < 1e-05 |
| G40U U49A A64U C70U | < 1e-05 |
| C34A G41A U47C | < 1e-05 |
| G37U A53U U57A | < 1e-05 |
| A52G C58G C61A A64U C67U | 9.05e-05 ± 3.3e-05 |
| C34G G43C A53U U54A | < 1e-05 |
| C34G G35A U49C | < 1e-05 |
| G40U A42G C70U | 0.00344 ± 0.00066 |
| G40U C50G G62A | < 1e-05 |
| C34A G43A A64G | < 1e-05 |
| G43A A53U U56G G62U | < 1e-05 |
| G41C G43C U55A U57G U69G | < 1e-05 |
| U45A U46A A52U | 8.04e-05 ± 3.5e-05 |
| A36U G51U G63U | < 1e-05 |
| A36U G44C U46G | < 1e-05 |
| G41U A52U U55A C70U | 6.63e-05 ± 1.6e-05 |
| G35U G60A C70G | < 1e-05 |
| A33U G43U U54A G60A | < 1e-05 |
| G44C U55C C70G | < 1e-05 |
| G51C G66A | < 1e-05 |
| A42G G43U G60U C61A | < 1e-05 |

| Variant | self-cleavage kobs at 2500 uM GlcN6P [s⁻¹] |
| --- | --- |
| A36C C50U G59A | < 1e-05 |
| A39G U57A | 0.000309 ± 7e-05 |
| A39C G60A C61A | < 1e-05 |
| U46A C67G C68U | 0.000113 ± 5.1e-05 |
| G38A U49A C50A | < 1e-05 |
| U47A A64U C67G | < 1e-05 |
| U54A C61A A64U C68U | 8.54e-05 ± 3.8e-05 |
| G44U C50G U56G | < 1e-05 |
| G40U C61U U65A | < 1e-05 |
| G35C A42U A48C G63U | < 1e-05 |
| C50G A52C U69C C70A | 0.000257 ± 8e-05 |
| C34U G40A U57A | < 1e-05 |
| U47C U54A C70U | 0.00241 ± 0.00052 |
| U45C G60A G63C | < 1e-05 |
| C50U G60U A64C C70A | < 1e-05 |
| G37A U65G C67A | 4.8e-05 ± 1.1e-05 |
| A42C A53C U55C | < 1e-05 |
| G38A A39U G43C A48U U55C C70A | < 1e-05 |
| G43C G66U C67A | 0.000168 ± 5.2e-05 |
| G38C U45C C50A G51C C67U | < 1e-05 |
| A36C U54A C61A C67A | 6.51e-05 ± 2.2e-05 |
